The numbers were not newly measured in paper PMC9594322, which cites them from elsewhere.

The data set deals with HIF-1β PAS-B (Homo sapiens) (UniProt P27540).
Sequence of HIF-1β PAS-B (Homo sapiens) (P27540 356-470): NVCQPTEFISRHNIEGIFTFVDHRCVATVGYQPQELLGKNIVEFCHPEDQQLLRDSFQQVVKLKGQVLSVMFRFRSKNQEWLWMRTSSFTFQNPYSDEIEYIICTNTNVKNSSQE

Sequence of HIF-1α PAS-B (Q16665 238-349): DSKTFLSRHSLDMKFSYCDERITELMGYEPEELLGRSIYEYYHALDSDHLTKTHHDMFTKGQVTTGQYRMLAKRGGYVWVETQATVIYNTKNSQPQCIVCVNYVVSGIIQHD

A word on the Kd: it is the free concentration of one partner at which half of the binding sites on the other are occupied at equilibrium, for simple one-to-one binding. Take HIF-1α PAS-B (from UniProt Q16665): the dissociation constant Kd is 378 nM.
